Assay results reported in article PMC4860839, “Structures of the APC–ARM domain in complexes with discrete Amer1/WTX fragments reveal that it uses a consensus mode to recognize its binding partners” (Cell Discovery, 2015).

Molecular target: T1, APC–ARM, human APC (407–751), N-terminally His-tagged (human, UniProt P25054 407-751)
T1 construct: human APC, armadillo repeat (ARM) domain, residues 407–751; source: E. coli BL21(DE3), purified (Ni2+-NTA, Superdex200)
T1 sequence (looked up): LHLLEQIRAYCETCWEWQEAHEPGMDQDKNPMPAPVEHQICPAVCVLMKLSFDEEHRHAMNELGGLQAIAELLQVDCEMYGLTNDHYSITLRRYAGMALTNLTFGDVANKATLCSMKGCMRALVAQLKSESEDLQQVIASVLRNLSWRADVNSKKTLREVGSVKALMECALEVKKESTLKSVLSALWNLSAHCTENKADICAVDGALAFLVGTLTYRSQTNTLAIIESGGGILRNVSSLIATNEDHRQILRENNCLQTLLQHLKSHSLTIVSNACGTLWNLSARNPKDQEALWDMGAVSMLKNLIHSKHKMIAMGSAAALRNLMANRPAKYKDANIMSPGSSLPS
Assay: pull-down; competition: GST-Amer1-A2/APC–ARM complex (0.5 mg/ml, 4 ml) preloaded on the GST column at 4 °C; 0.1, 0.2, 0.5, 1 mg/ml Asef ABR-SH3 (0.5 ml) added; SDS–PAGE, Coomassie
Conditions: both partners purified

binding result: binds
B1: Asef-ABR-SH3 (residues 170–271) (domain or fragment, human, UniProt Q9NR80 170-271, looked up)
chain: SSSHHYSHPGGGGEQLAINELISDGSVVCAEALWDHVTMDDQELGFKAGDVIEVMDATNREWWWGRVADGEGWFPASFVRLRVNQDEPADDDAPLAGNSGAE
notes: Added as a protein at stated concentrations; its expression and purification are not described; also called ABR-SH3 domain of Asef
